Data on one molecule can be found in patent US20080131422A1 (JURIDICAL FOUNDATION THE CHEMO SERO THERAPEUTIC RESEARCH …, published 2008).

This assay deals with T1, Aβ42 peptide (amyloid β peptide 1-42), soluble (UniProt P05067 672-713).
T1 construct: domain: Aβ1-42; also called Aβ1-42; soluble Aβ42 peptide
Kind of assay: ELISA; tat-VL coated, Aβ42 peptide at 100 ng/well, anti-Aβ42 monoclonal antibody detection. On the technique in general: In an ELISA, binding on a coated surface is turned into a signal by an enzyme label.

T1 sequence (P05067 672-713 limits assumed): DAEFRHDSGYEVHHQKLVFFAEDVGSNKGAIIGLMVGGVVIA

B1: tat peptide-fused human-derived anti-Aβ42 peptide VL chain (other)
chain: MGYGRKKRRQRRRGDIVMTQSPDSLAVSLGERATINCKSSQSVIHNSNVKNCLAWYQQKLGQPPNLLIYWASTRESGVPDRFSGSGSGTDFTLKISRVEAEDVGVYYCMQSIQLPRTFGQGTKVEIKR
notes: also called tat-VL chain; tat peptide-fused VL chain
Regarding B1, the binding result was “binds”.
